According to the supplement of paper PMC9112550, “Optimization of the antimicrobial peptide Bac7 by deep mutational scanning” (BMC Biology, 2022):

The sequences below were run on Escherichia coli TOP10 (assay: shrunken log2 fold change of peptide-encoding DNA abundance (4.5 h post-induction vs induction); higher = less antimicrobial activity (less host growth inhibition)). Conditions: time post-induction: 4.5 h; library: site-saturation at positions 5, 18, 19, 20.
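Further: peptides expressed intracellularly from a pBAD plasmid library in pooled LB shake-flask culture, induced with 0.3% L-arabinose, DNA abundance read by NGS, three biological replicates, DESeq2 with apeglm shrinkage.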

Sequence | shrunken log2 fold change
RRIRKRPPRLPRPRPRPQNLPRP | 0.0263
RRIRGRPPRLPRPRPRPLCQPRP | 0.712
RRIRMRPPRLPRPRPRPPSDPRP | 1.06
RRIRKRPPRLPRPRPRPLFMPRP | -0.0207
RRIRLRPPRLPRPRPRPHATPRP | -0.0435
RRIRKRPPRLPRPRPRPVSYPRP | -0.227
RRIRERPPRLPRPRPRPESHPRP | -0.0157
RRIRKRPPRLPRPRPRPDYLPRP | 0.111
RRIRCRPPRLPRPRPRPYVRPRP | -0.0787
RRIRVRPPRLPRPRPRPKWLPRP | 0.0936
RRIRCRPPRLPRPRPRPNDEPRP | -0.0298
RRIRYRPPRLPRPRPRPINDPRP | -0.0981
RRIRMRPPRLPRPRPRPGIHPRP | 0.142
RRIRPRPPRLPRPRPRPAQHPRP | 0.223
RRIRGRPPRLPRPRPRPFYDPRP | 0.0844
RRIRCRPPRLPRPRPRPRVMPRP | 0.278
RRIRKRPPRLPRPRPRPSDQPRP | 0.0938
RRIRARPPRLPRPRPRPEWKPRP | 0.0235
RRIRTRPPRLPRPRPRPFKFPRP | -0.0637
RRIRTRPPRLPRPRPRPWTGPRP | -0.352
RRIRKRPPRLPRPRPRPPHSPRP | 0.509
RRIRGRPPRLPRPRPRPDTFPRP | 0.43
RRIRERPPRLPRPRPRPTFPPRP | -0.44
RRIRKRPPRLPRPRPRPGPSPRP | 2.27
RRIRMRPPRLPRPRPRPHRAPRP | 0.677

Sequence | shrunken log2 fold change
RRIRDRPPRLPRPRPRPVKYPRP | -0.346
RRIRNRPPRLPRPRPRPTWWPRP | 0.326
RRIRCRPPRLPRPRPRPMSGPRP | 0.198
RRIRKRPPRLPRPRPRPSHGPRP | -0.216
RRIRSRPPRLPRPRPRPFDGPRP | 0.0042
RRIRDRPPRLPRPRPRPCSYPRP | -0.138
RRIRGRPPRLPRPRPRPPCRPRP | 0.637
RRIRNRPPRLPRPRPRPHACPRP | 0.0169
RRIRMRPPRLPRPRPRPHGIPRP | 0.0295
RRIRYRPPRLPRPRPRPCAVPRP | -0.269
RRIRKRPPRLPRPRPRPAFAPRP | 0.647
RRIRFRPPRLPRPRPRPTVYPRP | -0.307
RRIRDRPPRLPRPRPRPGYVPRP | -0.153
RRIRDRPPRLPRPRPRPSGFPRP | 0.029
RRIRKRPPRLPRPRPRPVIMPRP | 0.137
RRIRVRPPRLPRPRPRPWTSPRP | -0.329
RRIRNRPPRLPRPRPRPTGRPRP | 0.0525
RRIRRRPPRLPRPRPRPQMDPRP | -0.0632
RRIRCRPPRLPRPRPRPEWMPRP | -0.0041
RRIRCRPPRLPRPRPRPGALPRP | 0.264
RRIRRRPPRLPRPRPRPLSNPRP | -0.0853
RRIRHRPPRLPRPRPRPKLGPRP | -0.249
RRIRNRPPRLPRPRPRPNYNPRP | -1.07
RRIRTRPPRLPRPRPRPSVTPRP | -0.0217
RRIRWRPPRLPRPRPRPFDAPRP | 0.029

Sequence | shrunken log2 fold change
RRIRQRPPRLPRPRPRPWPHPRP | 0.172
RRIRNRPPRLPRPRPRPTHSPRP | -0.232
RRIRQRPPRLPRPRPRPYTIPRP | -0.0485
RRIRDRPPRLPRPRPRPASLPRP | 0.416
RRIRSRPPRLPRPRPRPTHVPRP | -0.117
RRIRTRPPRLPRPRPRPMKKPRP | -0.115
RRIRNRPPRLPRPRPRPYGGPRP | -0.0102
RRIRIRPPRLPRPRPRPKCQPRP | -0.00871
RRIRSRPPRLPRPRPRPGDVPRP | 0.204
RRIRYRPPRLPRPRPRPRLNPRP | -0.313
RRIRPRPPRLPRPRPRPFVNPRP | -0.196
RRIRPRPPRLPRPRPRPDRHPRP | -0.31
RRIRVRPPRLPRPRPRPRVAPRP | 0.381
RRIRVRPPRLPRPRPRPVQWPRP | -0.0327
RRIRERPPRLPRPRPRPWHNPRP | -0.344
RRIRIRPPRLPRPRPRPQVYPRP | 0.0822
RRIRPRPPRLPRPRPRPTICPRP | 0.172
RRIRKRPPRLPRPRPRPMHHPRP | -0.126
RRIRTRPPRLPRPRPRPRLFPRP | 0.207
RRIRVRPPRLPRPRPRPPWNPRP | 0.0143
RRIRWRPPRLPRPRPRPNRPPRP | 0.078
RRIRCRPPRLPRPRPRPQLYPRP | -0.236
RRIRWRPPRLPRPRPRPDKCPRP | -0.134
RRIRFRPPRLPRPRPRPVFTPRP | -0.0271
RRIRMRPPRLPRPRPRPHCYPRP | -0.0522

Sequence | shrunken log2 fold change
RRIRTRPPRLPRPRPRPDWLPRP | 0.514
RRIRDRPPRLPRPRPRPCWAPRP | 0.125
RRIRARPPRLPRPRPRPSHIPRP | -0.523
RRIRPRPPRLPRPRPRPHQEPRP | 4.12
RRIRYRPPRLPRPRPRPDHDPRP | -0.133
RRIRDRPPRLPRPRPRPACYPRP | -0.142
RRIRARPPRLPRPRPRPCYMPRP | -0.0886
RRIRKRPPRLPRPRPRPGVAPRP | 0.892
RRIRCRPPRLPRPRPRPYSEPRP | -0.766
RRIRTRPPRLPRPRPRPDVSPRP | -0.223
RRIRTRPPRLPRPRPRPLEPPRP | 0.021
RRIRRRPPRLPRPRPRPMSYPRP | -0.0379
RRIRTRPPRLPRPRPRPWPLPRP | 0.0506
RRIRRRPPRLPRPRPRPAHFPRP | 0.0399
RRIRFRPPRLPRPRPRPWMGPRP | -0.592
RRIRTRPPRLPRPRPRPDWVPRP | 0.0189
RRIRKRPPRLPRPRPRPRVAPRP | 1.11
RRIRNRPPRLPRPRPRPSFWPRP | -0.056
RRIRERPPRLPRPRPRPWDFPRP | 0.0275
RRIRMRPPRLPRPRPRPLWGPRP | 0.119
RRIRARPPRLPRPRPRPCWEPRP | 0.755
RRIRMRPPRLPRPRPRPSYHPRP | -0.402
RRIRWRPPRLPRPRPRPPENPRP | 0.0933
RRIRTRPPRLPRPRPRPHKWPRP | -0.029
RRIRDRPPRLPRPRPRPACFPRP | 0.664

Sequence | shrunken log2 fold change
RRIRERPPRLPRPRPRPFIYPRP | -0.0998
RRIRLRPPRLPRPRPRPCMDPRP | -0.351
RRIRHRPPRLPRPRPRPQYFPRP | -0.439
RRIRVRPPRLPRPRPRPREGPRP | 0.307
RRIRLRPPRLPRPRPRPYRPPRP | -0.221
RRIRNRPPRLPRPRPRPTQTPRP | -0.0444
RRIRERPPRLPRPRPRPFNLPRP | -0.233
RRIRHRPPRLPRPRPRPLNPPRP | -0.204
RRIRYRPPRLPRPRPRPQEFPRP | -0.00973
RRIRDRPPRLPRPRPRPATCPRP | 0.171
RRIRERPPRLPRPRPRPGCHPRP | -0.0878
RRIRIRPPRLPRPRPRPQRHPRP | -0.401
RRIRHRPPRLPRPRPRPINHPRP | -0.97
RRIRQRPPRLPRPRPRPVCQPRP | -0.0856
RRIRIRPPRLPRPRPRPLCPPRP | -0.502
RRIRCRPPRLPRPRPRPNHHPRP | -0.604
RRIRVRPPRLPRPRPRPKVRPRP | 0.0291
RRIRKRPPRLPRPRPRPFNHPRP | -0.993
RRIRKRPPRLPRPRPRPWCSPRP | -0.155
RRIRERPPRLPRPRPRPVGKPRP | -0.309
RRIRMRPPRLPRPRPRPRWEPRP | 0.814
RRIRLRPPRLPRPRPRPDCDPRP | 0.183
RRIRSRPPRLPRPRPRPQADPRP | -0.0788
RRIRLRPPRLPRPRPRPRMPPRP | 0.352
RRIRGRPPRLPRPRPRPMNHPRP | 0.116

Sequence | shrunken log2 fold change
RRIRPRPPRLPRPRPRPLWQPRP | 0.0105
RRIRARPPRLPRPRPRPIISPRP | -0.129
RRIRKRPPRLPRPRPRPCTTPRP | -0.132
RRIRSRPPRLPRPRPRPSYKPRP | -0.659
RRIRHRPPRLPRPRPRPENPPRP | -0.277
RRIRDRPPRLPRPRPRPGRPPRP | 0.136
RRIRHRPPRLPRPRPRPYVCPRP | 0.0124
RRIRRRPPRLPRPRPRPGTPPRP | 0.435
RRIRLRPPRLPRPRPRPGNKPRP | -0.46
RRIRSRPPRLPRPRPRPMCSPRP | -0.0814
RRIRWRPPRLPRPRPRPSMCPRP | -0.16
RRIRSRPPRLPRPRPRPFTGPRP | -0.261
RRIRGRPPRLPRPRPRPWQQPRP | 0.0543
RRIRVRPPRLPRPRPRPGGFPRP | 0.211
RRIRSRPPRLPRPRPRPARYPRP | -0.0163
RRIRNRPPRLPRPRPRPQHSPRP | -0.428
RRIRPRPPRLPRPRPRPSLGPRP | 0.342
RRIRYRPPRLPRPRPRPTACPRP | -0.13
RRIRHRPPRLPRPRPRPLHIPRP | -0.453
RRIRGRPPRLPRPRPRPLGCPRP | 1.27
RRIRARPPRLPRPRPRPKWNPRP | 0.286
RRIRNRPPRLPRPRPRPTTNPRP | 0.365
RRIRARPPRLPRPRPRPAMEPRP | 0.372
RRIRWRPPRLPRPRPRPPKLPRP | 0.152
RRIRSRPPRLPRPRPRPTHNPRP | -0.133
